Assay results: US20190256864A1 (INDIANA UNIVERSITY RESEARCH AND TECHNOLOGY, published 2019)

Tests used:
[1] = tested on: T1, Soybean mosaic virus (SMV) PBS1 decoy protein
T1 sequence: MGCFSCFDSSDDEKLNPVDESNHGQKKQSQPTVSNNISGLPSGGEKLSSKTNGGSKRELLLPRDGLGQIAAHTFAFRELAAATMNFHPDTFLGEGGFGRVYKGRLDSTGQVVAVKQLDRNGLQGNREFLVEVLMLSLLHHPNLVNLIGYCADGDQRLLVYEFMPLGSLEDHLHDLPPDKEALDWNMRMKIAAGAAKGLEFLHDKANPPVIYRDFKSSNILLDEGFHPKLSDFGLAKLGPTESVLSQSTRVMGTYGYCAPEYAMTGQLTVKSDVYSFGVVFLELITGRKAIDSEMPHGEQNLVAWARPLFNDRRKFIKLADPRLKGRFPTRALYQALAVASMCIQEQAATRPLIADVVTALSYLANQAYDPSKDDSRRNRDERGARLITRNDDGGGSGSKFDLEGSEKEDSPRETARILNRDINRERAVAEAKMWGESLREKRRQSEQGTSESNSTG

[2] = tested on: T2, Wheat streak mosaic virus (WSMV) PBS1 decoy protein
T2 sequence: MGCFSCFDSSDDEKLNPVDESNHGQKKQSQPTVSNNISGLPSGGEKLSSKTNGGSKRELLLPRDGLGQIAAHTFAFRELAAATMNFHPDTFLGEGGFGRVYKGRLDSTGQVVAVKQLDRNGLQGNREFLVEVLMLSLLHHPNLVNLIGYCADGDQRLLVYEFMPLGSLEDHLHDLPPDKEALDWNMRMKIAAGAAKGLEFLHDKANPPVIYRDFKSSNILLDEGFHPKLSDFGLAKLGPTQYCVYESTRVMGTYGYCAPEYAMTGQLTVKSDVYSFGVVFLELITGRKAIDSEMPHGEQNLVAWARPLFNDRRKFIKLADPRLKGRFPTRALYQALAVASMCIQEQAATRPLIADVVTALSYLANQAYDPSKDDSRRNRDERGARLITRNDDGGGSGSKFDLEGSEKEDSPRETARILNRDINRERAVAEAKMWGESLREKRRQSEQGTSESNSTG

[3] = tested on: T3, GmPBS1SCS derivative of GmPBS1a
T3 sequence: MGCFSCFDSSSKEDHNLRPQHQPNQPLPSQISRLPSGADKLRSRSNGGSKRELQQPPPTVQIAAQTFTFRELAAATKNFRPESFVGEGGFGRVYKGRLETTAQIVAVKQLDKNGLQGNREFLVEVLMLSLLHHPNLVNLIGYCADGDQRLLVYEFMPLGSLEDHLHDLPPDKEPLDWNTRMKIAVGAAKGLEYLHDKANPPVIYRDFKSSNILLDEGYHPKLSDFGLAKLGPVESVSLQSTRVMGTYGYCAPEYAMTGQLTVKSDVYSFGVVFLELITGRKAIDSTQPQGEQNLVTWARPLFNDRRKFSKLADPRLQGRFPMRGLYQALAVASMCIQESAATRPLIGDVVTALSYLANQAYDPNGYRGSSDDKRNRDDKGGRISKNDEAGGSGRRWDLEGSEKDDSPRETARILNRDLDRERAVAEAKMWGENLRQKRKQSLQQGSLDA

[4] = tested on: T4, GmPBS1SCS derivative of GmPBS1b
T4 sequence: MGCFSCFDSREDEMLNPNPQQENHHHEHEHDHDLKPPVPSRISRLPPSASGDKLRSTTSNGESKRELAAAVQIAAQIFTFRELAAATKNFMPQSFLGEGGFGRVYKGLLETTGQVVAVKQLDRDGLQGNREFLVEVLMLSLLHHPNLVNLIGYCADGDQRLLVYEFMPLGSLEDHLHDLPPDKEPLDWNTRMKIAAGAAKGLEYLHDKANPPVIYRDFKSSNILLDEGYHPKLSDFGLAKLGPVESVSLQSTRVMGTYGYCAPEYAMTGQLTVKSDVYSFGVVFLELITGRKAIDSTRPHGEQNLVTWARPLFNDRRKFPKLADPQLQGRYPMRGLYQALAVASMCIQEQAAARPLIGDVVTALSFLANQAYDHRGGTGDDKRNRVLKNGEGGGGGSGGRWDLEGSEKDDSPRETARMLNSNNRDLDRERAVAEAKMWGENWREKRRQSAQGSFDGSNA

[5] = tested on: T5, GmPBS1SCS derivative of GmPBS1c
T5 sequence: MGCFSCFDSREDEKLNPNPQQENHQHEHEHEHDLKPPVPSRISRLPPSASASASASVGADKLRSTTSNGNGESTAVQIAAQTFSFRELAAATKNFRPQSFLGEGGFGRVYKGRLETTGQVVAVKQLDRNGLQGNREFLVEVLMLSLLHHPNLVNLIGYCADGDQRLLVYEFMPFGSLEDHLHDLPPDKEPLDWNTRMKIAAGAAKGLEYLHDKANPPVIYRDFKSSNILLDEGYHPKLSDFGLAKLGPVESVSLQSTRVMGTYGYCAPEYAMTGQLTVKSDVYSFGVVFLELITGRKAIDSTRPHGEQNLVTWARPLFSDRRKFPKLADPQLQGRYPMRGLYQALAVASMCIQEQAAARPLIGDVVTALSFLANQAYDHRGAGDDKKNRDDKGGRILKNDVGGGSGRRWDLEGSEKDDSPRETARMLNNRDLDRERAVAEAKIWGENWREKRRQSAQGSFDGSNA

[6] = biological target: NbPBS1:HA
[7] = biological target: T6, HvPBS1-2:HA
T6 chain: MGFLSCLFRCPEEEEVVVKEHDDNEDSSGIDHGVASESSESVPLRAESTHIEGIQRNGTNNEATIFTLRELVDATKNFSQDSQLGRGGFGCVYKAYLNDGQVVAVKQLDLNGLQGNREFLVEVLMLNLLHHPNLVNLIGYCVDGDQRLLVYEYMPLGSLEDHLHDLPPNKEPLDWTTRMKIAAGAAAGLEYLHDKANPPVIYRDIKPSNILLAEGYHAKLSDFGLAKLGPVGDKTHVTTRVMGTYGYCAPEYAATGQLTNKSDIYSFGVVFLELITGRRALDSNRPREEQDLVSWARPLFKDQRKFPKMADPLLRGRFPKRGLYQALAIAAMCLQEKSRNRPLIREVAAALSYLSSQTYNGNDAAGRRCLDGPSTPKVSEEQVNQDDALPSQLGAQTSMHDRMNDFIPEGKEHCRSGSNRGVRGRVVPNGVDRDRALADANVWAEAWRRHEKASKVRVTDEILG

[8] = biological target: T7, HvPBS1-1:HA
T7 chain: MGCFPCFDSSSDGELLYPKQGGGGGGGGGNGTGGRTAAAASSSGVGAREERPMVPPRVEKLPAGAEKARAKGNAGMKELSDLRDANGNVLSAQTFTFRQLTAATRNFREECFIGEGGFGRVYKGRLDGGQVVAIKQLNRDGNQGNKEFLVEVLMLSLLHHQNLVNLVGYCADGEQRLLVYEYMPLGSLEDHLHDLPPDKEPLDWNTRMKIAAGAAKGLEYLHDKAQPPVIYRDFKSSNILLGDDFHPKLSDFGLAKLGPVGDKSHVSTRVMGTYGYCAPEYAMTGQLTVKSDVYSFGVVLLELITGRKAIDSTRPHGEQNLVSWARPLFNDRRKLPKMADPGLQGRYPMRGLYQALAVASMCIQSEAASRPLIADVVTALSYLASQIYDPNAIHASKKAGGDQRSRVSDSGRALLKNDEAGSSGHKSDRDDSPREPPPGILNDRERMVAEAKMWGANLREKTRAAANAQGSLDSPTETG

[9] = biological target: T8, sYFP:LTI6b (Arabidopsis thaliana, UniProt Q9ZNS6 1-54); test: co-immunoprecipitation (GFP-Trap beads, anti-HA blot) after transient co-expression in N. benthamiana
T8 construct: Negative control in the co-immunoprecipitation; also called sYFP:LTI6b fusion protein; plasma membrane-localized negative control; not shown: N-terminal super yellow fluorescent protein (sYFP)
T8 sequence (looked up): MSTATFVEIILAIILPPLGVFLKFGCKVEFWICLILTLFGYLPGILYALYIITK
Description: To determine whether PBR1.c is activated by sensing cleavage of PBS1 proteins, co-immunoprecipitation (co-IP) analyses of PBR1.c with HvPBS1-1:HA, HvPBS1-2:HA, AtPBS1:HA, or NbPBS1:HA was performed. As a positive control, AtPBS1:HA was co-expressed with RPS5:sYFP, which forms a pre- activation complex in the absence of AvrPphB. As a negative control, the plasma membrane-localized fusion protein sYFP:LTI6b with each of the PBS1 proteins (Cutler et al., 2000). […] NbPBS1:HA also immunoprecipitated with PBR1.c:sYFP (and not with sYFP:LTI6b) supporting the notion that AvrPphB-mediated cleavage of NbPBS1 activates PBR1.c-dependent HR in N. benthamiana. Though all of the PBS1 proteins immunoprecipitated with PBR1.c:sYFP, PBR1.c:sYFP preferentially interacted with HvPBS1-2:HA and AtPBS1:HA (FIG. 7).
For transient expression assays in N. benthamiana, we followed the protocol described by DeYoung et al. (2012) and Kim et al. (2016). Briefly, the dexamethasone-inducible constructs were transformed into Agrobacterium tumefaciens GV3101 (pMP90) strains and were streaked onto Luria-Bertani (LB) plates containing 30 μg of gentamicin sulfate per milliliter and 50 μg of kanamycin per milliliter. […]

Molecule: Wheat streak mosaic virus (WSMV) NIa protease
- cleavage of the substrate (immunoblot after transient co-expression in N. benthamiana); not cleaved by the non-matching protease [1]: demonstrating cleavage of the decoy PBS1 proteins only by the matching proteases
- cleavage of the substrate (immunoblot after transient co-expression in N. benthamiana) [2]: demonstrating cleavage of the decoy PBS1 proteins only by the matching proteases

Molecule: Soybean mosaic virus (SMV) NIa protease
- cleavage of the substrate (immunoblot after transient co-expression in N. benthamiana) [1]: demonstrating cleavage of the decoy PBS1 proteins only by the matching proteases
- cleavage of the substrate (immunoblot after transient co-expression in N. benthamiana); not cleaved by the non-matching protease [2]: demonstrating cleavage of the decoy PBS1 proteins only by the matching proteases
- cleavage of the substrate (transient coexpression in N. benthamiana) [3]: Transient coexpression of the modified GmPBS1 constructs along with the SMV NIa protease in N. benthamiana resulted in NIa-mediated cleavage of GmPBS1SCS
- cleavage of the substrate (transient coexpression in N. benthamiana) [4]: Transient coexpression of the modified GmPBS1 constructs along with the SMV NIa protease in N. benthamiana resulted in NIa-mediated cleavage of GmPBS1SCS
- cleavage of the substrate (transient coexpression in N. benthamiana) [5]: Transient coexpression of the modified GmPBS1 constructs along with the SMV NIa protease in N. benthamiana resulted in NIa-mediated cleavage of GmPBS1SCS

B1: AvrPphB(C98S):myc (protein)
chain: MKIGTQATSLAVLHNQESHAPQAPIAVRPEPAHAIPEIPLDLAIRPRTRGIHPFLAMTLGDKGCASSSGVSLEDDSHTQVSLSDFSVASRDVNHNNISAGLSTEWLVMSSDGDAESRMDHLDYNGEGQSRGSERHQVYNDALRAALSNDDEAPFFTASTAVIEDAGFSLRREPKTVHASGGSAQLGQTVAHDVAQSGRKHLLSLRFANVQGHAIACSCEGSQFKLFDPNLGEFQSSRSAAPQLIKGLIDHYNSLNYDVACVNEFRVS
- cleavage of the substrate (immunoblot after transient co-expression in N. benthamiana) [6]: Co-expression with AvrPphB:myc, but not the protease inactive mutant, resulted in cleavage of NbPBS1:HA
- cleavage of the substrate (Western blot after transient co-expression in N. benthamiana) [7]: This did not produce any cleavage products
- cleavage of the substrate (Western blot after transient co-expression in N. benthamiana) [8]: This did not produce any cleavage products

B2: HvPBS1-2:HA (enzyme, not shown: small tags and cut ends)
chain: MGFLSCLFRCPEEEEVVVKEHDDNEDSSGIDHGVASESSESVPLRAESTHIEGIQRNGTNNEATIFTLRELVDATKNFSQDSQLGRGGFGCVYKAYLNDGQVVAVKQLDLNGLQGNREFLVEVLMLNLLHHPNLVNLIGYCVDGDQRLLVYEYMPLGSLEDHLHDLPPNKEPLDWTTRMKIAAGAAAGLEYLHDKANPPVIYRDIKPSNILLAEGYHAKLSDFGLAKLGPVGDKTHVTTRVMGTYGYCAPEYAATGQLTNKSDIYSFGVVFLELITGRRALDSNRPREEQDLVSWARPLFKDQRKFPKMADPLLRGRFPKRGLYQALAIAAMCLQEKSRNRPLIREVAAALSYLSSQTYNGNDAAGRRCLDGPSTPKVSEEQVNQDDALPSQLGAQTSMHDRMNDFIPEGKEHCRSGSNRGVRGRVVPNGVDRDRALADANVWAEAWRRHEKASKVRVTDEILG
notes: also called HORVU3Hr1G035810.1; MLOC_12866
- binding result [9]: no binding

B3: HvPBS1-1:HA (enzyme, not shown: small tags and cut ends)
chain: MGCFPCFDSSSDGELLYPKQGGGGGGGGGNGTGGRTAAAASSSGVGAREERPMVPPRVEKLPAGAEKARAKGNAGMKELSDLRDANGNVLSAQTFTFRQLTAATRNFREECFIGEGGFGRVYKGRLDGGQVVAIKQLNRDGNQGNKEFLVEVLMLSLLHHQNLVNLVGYCADGEQRLLVYEYMPLGSLEDHLHDLPPDKEPLDWNTRMKIAAGAAKGLEYLHDKAQPPVIYRDFKSSNILLGDDFHPKLSDFGLAKLGPVGDKSHVSTRVMGTYGYCAPEYAMTGQLTVKSDVYSFGVVLLELITGRKAIDSTRPHGEQNLVSWARPLFNDRRKLPKMADPGLQGRYPMRGLYQALAVASMCIQSEAASRPLIADVVTALSYLASQIYDPNAIHASKKAGGDQRSRVSDSGRALLKNDEAGSSGHKSDRDDSPREPPPGILNDRERMVAEAKMWGANLREKTRAAANAQGSLDSPTETG
notes: also called HORVU2Hr1G070690.2; MLOC_13277
- binding result [9]: no binding
